The values below come from US20230174616A1 (UNIVERSITY OF SOUTHERN CALIFORNIA, published 2023).

Primed or numbered codes have the meaning given here. Where no end group is shown, it is not given here. Side-chain parts run from the residue outwards. [ ]: non-standard residue; d: D form. triazole = 1,2,3-triazole formed by click reaction of the propargylglycine alkyne with ROX-azide; Pra′ = its azide, alkyne or alkene has reacted where a group follows in round brackets; ROX = carboxy-X-rhodamine, joined by click triazole

For test [1], the target named is T1, biotinylated hPD-L1 (extracellular domain of human PD-L1, Ala18 to Thr239, expressed in E. coli, … (human, biotin on the epsilon-amino group of the Avi tag lysine (BirA))).
T1 construct: also called recombinant hPD-L1; non-glycosylated hPD-L1
As to the kind of experiment: fluorescence anisotropy, 100 nM ROX-SPAM titrated with hPD-L1. The procedure: (§1) Each measurement was carried out in triplicate and the mean value was reported along with the standard deviation. […] The mean of the normalized binding for each incubation time is shown along with the standard deviation of the mean. Each measurement was carried out in triplicate and error bars show the standard deviation of the mean (Students t-test; p value <0.05 (*), <0.01 (**), <0.005 (***), <0.001 (****)).
(§2) The resulting values were plotted against the concentration of hPD-L1 or hPD-L1* and fit to a one-site saturation binding model with GraphPad Prism.
Background: In fluorescence polarisation assays a small probe gives low polarisation when free and higher when bound to something large.

The target of test [2] is T2, hPD-L1* (recombinant glycosylated human PD-L1 ectodomain, A18-T239, expressed in Expi293F cells) (human, UniProt Q9NZQ7 18-239, N-glycosylated; Avi tag biotinylated in vitro with BirA).
T2 construct: also called glycosylated hPD-L1
As to the kind of experiment: fluorescence anisotropy, 100 nM ROX-SPAM titrated with hPD-L1*. The procedure:
as §1, §2

For test [3], the target named is T2, hPD-L1* (recombinant glycosylated human …). As to the kind of experiment: fluorescence polarization, 100 nM ROX-SPAM with 2.4 nM-5 uM glycosylated hPD-L1*, 22 C (67 +/- 21 nM in paragraph 94); glycosylated hPD-L1*. On the procedure:
as §2
(§3) The fluorescence polarization of each sample was measured on a Synergy H4 Hybrid Multi-Mode Microplate Reader. Each measurement was carried out in triplicate and the mean value was calculated. The values were fit to a one-site saturation binding model in GraphPad Prism to obtain the corresponding equilibrium dissociation constants.

Test [4] addresses T1, biotinylated hPD-L1 (extracellular …). As to the kind of experiment: fluorescence polarization, 100 nM ROX-SPAM with 2.4 nM-5 uM non-glycosylated hPD-L1, 21 C (119 +/- 33 nM in paragraph 94); non-glycosylated, E. coli-expressed hPD-L1. On the procedure: as §2, §3

B1: ROX-SPAM (carboxy-X-rhodamine labeled SPAM peptide) (peptide)
peptide: MPIFLDHILNKFWILHYASG[Pra′]([triazole-ROX])-NH2
modifications: also: ROX attached to Pra by click triazole
notes: Synthetic peptide used in fluorescence polarization; also called ROX-labeled SPAM
By EC50 (read off the curve) is commonly meant the concentration that produces a half-maximal response. As a reminder, the Kd is the concentration at which binding is half-saturated. Consider B1, for which the “EC50 (read off the curve)” value in test [1] is roughly 100 nM; in test [2], roughly 70 nM. Moreover, the figures for the Kd in test [3] and in test [4] were 67 nM and 119 nM, respectively.
